The results in this text go back to article PMC2063705 (The Journal of Cell Biology, 2006).

The test addresses microtubules polymerized from purified tubulin, stabilized with paclitaxel (UniProt Q6B856 1-445). Kind of test: co-sedimentation.

B1: wild-type p150^Glued NH2-terminal residues 1–333 (domain or fragment, human, UniProt Q14203-1 1-333, looked up)
chain: MAQSKRHVYSRTPSGSRMSAEASARPLRVGSRVEVIGKGHRGTVAYVGATLFATGKWVGVILDEAKGKNDGTVQGRKYFTCDEGHGIFVRQSQIQVFEDGADTTSPETPDSSASKVLKREGTDTTAKTSKLRGLKPKKAPTARKTTTRRPKPTRPASTGVAGASSSLGPSGSASAGELSSSEPSTPAQTPLAAPIIPTPVLTSPGAVPPLPSPSKEEEGLRAQVRDLEEKLETLRLKRAEDKAKLKELEKHKIQLEQVQEWKSKMQEQQADLQRRLKEARKEAKEALEAKERYMEEMADTADAIEMATLDKEMAEERAESLQQEVEALKERVD
modifications: [35S]methionine label (microtubule binding assay)
Regarding B1, the affinity, expressed as Kd, was 1100 ± 200 nM.

B2: G59S p150^Glued NH2-terminal residues 1–333 (domain or fragment, human, UniProt Q14203-1 1-333, looked up)
chain: MAQSKRHVYSRTPSGSRMSAEASARPLRVGSRVEVIGKGHRGTVAYVGATLFATGKWVSVILDEAKGKNDGTVQGRKYFTCDEGHGIFVRQSQIQVFEDGADTTSPETPDSSASKVLKREGTDTTAKTSKLRGLKPKKAPTARKTTTRRPKPTRPASTGVAGASSSLGPSGSASAGELSSSEPSTPAQTPLAAPIIPTPVLTSPGAVPPLPSPSKEEEGLRAQVRDLEEKLETLRLKRAEDKAKLKELEKHKIQLEQVQEWKSKMQEQQADLQRRLKEARKEAKEALEAKERYMEEMADTADAIEMATLDKEMAEERAESLQQEVEALKERVD
modifications: [35S]methionine label (microtubule binding assay)
B2 came in with a Kd of 2600 ± 500 nM.
